The source of these data is publication PMC3717276, “Optimization and validation of mitochondria-based functional assay as a useful tool to identify BH3-like molecules selectively targeting anti-apoptotic Bcl-2 proteins” (BMC Biotechnology, 2013).

In assay [1] the target is Human Bcl-2 protein (isoform 2 construct), N-terminal 6xHis tagged recombinant protein (human). As to the kind of experiment: fluorescence polarisation; saturation experiments with FAM-Bid and Mcl-1 or Bcl-2 protein; assay buffer 100 mM potassium phosphate, pH 7.5, 100 ug/ml bovine gamma globulin, 0.02% sodium azide. A general note: Polarisation of emitted light reports the rotation of a fluorescent probe.

Assay [2] has the same target. As to the kind of experiment: SPR; competitive solution binding: protein (20 nM) pre-incubated with tested BH3 peptide for at least 30 min, injected over immobilised biotin-Bim BH3 peptide; response at 30 s of dissociation.
Assay [3] shares this target. As to the kind of experiment: fluorescence polarisation; competition: Mcl-1 (20 nM) or Bcl-2 (40 nM) pre-incubated with FAM-Bid (2 nM and 2.5 nM), tested BH3 peptide added, 2-3 h; 100 mM potassium phosphate, pH 7.5, 100 ug/ml bovine gamma globulin, 0.02% sodium azide; Ki calculated from IC50.

Usually Kd stands for the equilibrium constant for the complex coming apart. A word on the IC50: it is the concentration needed to halve the response being measured. By Ki is commonly meant a dissociation constant, usually derived from enzyme kinetics or from competition with a known ligand.

Consider “21-residue Bid BH3 peptide labeled at the N-terminus with 6-carboxyfluorescein succinimidyl ester (FAM-Bid)”, for which the Kd in assay [1] is 0.0063 µM.

As for Bid BH3 peptide (residues 79-99), the IC50 in assay [2] worked out at 0.0512 µM. For the same substance, in assay [3], the Ki was 0.0112 µM.
